# Results taken from the supplement of paper PMC9170038.
# Tested on: K4 kissing-loop RNA reporter
# Assay: apparent KD of K4 kissing-loop reporter; higher = weaker reporter binding
# Settings: Eterna round: R107
# Protocol: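 RNA-MaP round R107: designed RNA switches with theophylline, tryptophan, arginine or FMN aptamers are transcribed on-chip within common flanks. They are titrated with a labelled K4 kissing-loop RNA reporter in RNA-MaP buffer (100 mM Tris pH 7.5, 80 mM KCl, 4 mM MgCl2), without ligand or with the indicated ligand. Median apparent KD per design.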
# [1] = input ligand: theophylline 20 uM
# [2] = input ligand: tryptophan 2.4 mM
# 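Also: bound reporter read as fluorescence of individual clusters on recovered sequencing chips by microscopy, with normalized cluster intensities fitted with a binding model.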
Sequence,apparent KD of K4 kissing-loop reporter (input ligand: FMN 200 uM) [nM],apparent KD of K4 kissing-loop reporter (input ligand: arginine 13.2 mM) [nM],apparent KD of K4 kissing-loop reporter (input ligand: none) [nM],apparent KD of K4 kissing-loop reporter [1] [nM],apparent KD of K4 kissing-loop reporter [2] [nM]
UGGAGUUGACGAAAAGUCAACUCCUGGGAAGGAGCGGACGAAAGUCCAGGUAGGUCGCCCACUACCAGUGAUGUUGGUACUCAAA,178,196,170,266,169
UACUAACGUUAAGGAUAUGCGUCGAUUACCGGUAAGUGAUGUUUAGCGCCCGGGCAACGGUGGGUCGCAGAAGGUAAACACAGUU [theeternabot_sameState_KL_FMN_B_19],689,551,795,640,610
GGCACUUUUGGUAGGAACCAUCUACCUCUAUAGGAUAUGCCGAAAGGCAGAAGGAUAGACCUACAGAGUGAUGUUCUGCGUGCCU,573,150,330,203,211
UGACGUUUGGGAAGGAGCGGAAUGUAAUACGGAACGCGUGGAGAUGCAGUGAUGUUGCAGAUCCAGGUAGGUCGCCCAAGGGACG [Zainat],91.4,72,76.2,84.9,94.2
CAGAACUUGUAUACAGGGCAUGCCAGAGAUACCAGUCAAAUGGAAGGCCCUUGGCAGCUCAGGCGAGUGAUGUUCGCAGGCUGAC [Exclusion Theophylline A GF 19],140,122,116,131,133
UGUAUGGACUGAAGGAGCGGUAUAUAAACUGAGUGAUGUUCGGCAGAUAAAGGCGCAAGCCACCAGGUAGGUCGCAGUCCAUACU [KL-SSArg B2],453,207,381,390,342
AAUUUGUAUUUAUUCUUUAAAUGUUCAGAAGGAGCGUGAAUUAUCACAGGUAGGUCGCUGAGCUAGUGAUGUUAGCUAUACACUA [#01 K4 Arginine A Exclusion],98.5,201,127,181,91
AGACUACUGACAGGAUAUAACAUACUAGCUCGUAUACCAAAGGUAUACGAGCACCUUCUAGUGAUGUUAGAAGGGUCGGUAGUCA [Omei KL FMN B Exc B v2],412,264,300,310,310
CCGAUGGGUACAGGAUAUGCCAGUGAUGUUGGUUUAGAUGGACCCAGAAGGAGACACCAGACGGAGGCAGAAGGGUAGCAAGGGA [Raarriis],140,108,106,100,105
AAAAUAAUCCAGUGAUGUUGGUGUCCAGAUACCAGCGACGAAAGUCGCCCUUGGCAGCUGUGGACGUACAAAAUAAGUACGUCCU,476,331,559,251,431
UGUCAUUGGUCGGCCGCCACUAGAAGGUCAAAGACCAUGGAGUGAUGUUCUAAGACGAAAGUCACUAGGACCGGGACCGAUGACU [TrypBS 5 #SwitchBubble #K4Middle],1640,689,1450,918,575
AAGUGAUGUUGUAGUGAUGUUGUGAUGUUGCAGGAUAUAUAGUGAUGUAGAAGGGUAUGUGCAGUUUUCUUAUUUGAGUGUUGAU [zwzamullin],75.9,33.2,62.6,49.5,61.3
AGACUACCACACUGUCAAUAGACAGUGUACUAGGAUAUGCUGAUAAGCAGAAGGAGUGAUGUUCCUCGGUAGUCAAUAAAAUAAU [FmnAX 13 U28+C67],220,300,286,350,276
GGCACGGGCUCGGCCGCCACUCCCGCGGGUCGAAAGGUCCGCUACUGAGUGAUGUUCGGUUGGAGGAGGACCGGGAGCCCGUGCC [#2 Exclusion - Tryptophan B Attempt #23 (HarryS)],130,91.6,108,99.9,98.4
GCCGUACGCAUGGAUACCAGUCUACAUCGCAGUGAUGUUGCGUAGUUCAGAUUAACUGCCGACCCUUGGCAGCCAUGCGUACGGC,134,111,127,118,120
AAAUAGAUCAGUCACCCAGUGAUGUUGGAAGGAGCGUGCGAAAGCACAGGUAGGUCGCCAAAACCUAAGUGGCUGAUCAAAAUAA [#SwitchBubble 4 #K4Early],838,445,819,523,587

Sequence,apparent KD of K4 kissing-loop reporter (input ligand: FMN 200 uM) [nM],apparent KD of K4 kissing-loop reporter (input ligand: arginine 13.2 mM) [nM],apparent KD of K4 kissing-loop reporter (input ligand: none) [nM],apparent KD of K4 kissing-loop reporter [1] [nM],apparent KD of K4 kissing-loop reporter [2] [nM]
UUCUUGAUGGAAACAUCGAGGAUUACUGAUACCAGUAUCGAUAGAUACCCUUGGCAGCAGAAUCAGUAAUCACGAGUGAUGUUCG [Ex Theophylline A K4 6],662,497,841,583,460
GGCGGCCGCGCGCAAGCGCGGCCGGCCGAUACCAGCGCGACGGCGCGCCCUUGGCAGCGGCGCCGAGUGAUGUUCGGCCUGCCGU [#2 Same State - Theophylline A Attempt #15 (HarryS)],151,81.1,146,94.2,96.4
UGAUACCAGACGGCCGCCACUAGGACCGGGAGUGAUGUUCCAAAAUUAAAAUACUCGGCCGCCACUAGGACCGGGUCUGGUAUCU [TrypBX 25 #DoubleAptamer #SwitchBubble],225,137,162,205,75.4
CUAUAUAGUGAUGUUAUAUAGAUAACAGAUACCAGCUAGAAAACUAGCCCUUGGCAGCUGAUAAGGGAAAGUAUAAUUGUGUAAA [AstroSTH-A#DifdesignED20.18],82.1,73,76,64.8,73.7
UUUGGUUUCUCGGCCGCCACUCGUUGUCUAUCGGCUUCAGGGAUAUAGUGAUGUUAUGUAUAGAAGAGGACCGGGAGAAGGUUUU [ExTryptoB.Dw],467,602,603,864,398
UUAUAUAAGGGAAGGAGCGCGUGGGCGCAGUGAUGUUGCGCCCGACAUCACUUCAACUUAACGCAGGUAGGUCGCCCUUUUAAUA [Arginine B (Excl) V4],188,194,209,206,209
UGUGUACCGGGAAGGAGCGUGAAUGAGAAUGGAUAUAGUGAUGUUAUAUAUACGAACGAAUCGCAGGUAGGUCGCCCGGAUCCCU [SSArgB.Y],418,408,432,444,345
CGAGCGGAGUGAUGUUCCGUGCCAGCAGAUACCAGAUUGAAAGAGAUCCCUUGGCAGCUGCGUCACACCCUUACGUGAUAGGACC [theeternabot_sameState_KL_Theo_A_32],244,178,239,275,165
AAUAAAAUCACGGCCGCCACUGAUUUCCAUAUUAGGAGUGAUGUUCCUAUGACUAUAUAAUUUAACAGGACCGGGUGAAUAUUUA [JR_ExcTryptoB_Sub012],110,112,108,111,93.5
GAUAUAGUGAUGUUAUAUGGGAAGGAGUUACGAGGACCGGUACGGCCGCCACUCGAAACGAGUGAGGAUUUGGGAGAUUGGGUUU [SSTryptA.R],369,386,376,488,235
UGUACCGAGUCAGGAUAUGGCGUCGAAAGACGAAUGCUAGUGAUGUUAGGGAUCUGCGAAAGCAGUCUAGAAGGGACUUGGUACU [FmnBS 26 G36+U68],359,361,471,483,525
AGUGGACGUGUCUAGAGUGAUGUUCCGGAUACCAGACACGAAAGUGUCCCUUGGCAGCCGGAGUGAUGUUCUGGCGUUCACUAAA [Omei KL Theo A Exc B v6],647,296,549,459,440
CGGCGGAGUGAUGUUCCACCUACUGCGGAUACCAGCUUUGCCAAAGGCCCUUGGCAGCCGCACGGCUCAGUGAUGUUGGGUCGCG [Same State Theophylline A G11],225,179,244,223,199
GAAUAAUAACAUGAGUGAUGUUCAUGUAAACGAGGACCGGUACGGCCGCCACUCGUUUCUCAUGUAAGCCGUACCAAUAACAAUA [KL-XTryp-A5 #analogue],146,142,151,147,237
GGUGUUGUUUGUGCUGUUUUCCUCGUUCCUCGAGGACCGGUACGGCCGCCACUCGAGUGAUGUUUGGGUAGCGAUCCUUGUUAGU [Bdazzled - #7 Exc. Tryptophan A],336,226,341,264,441
CAAAUAUGCGGUAGGUUCAAGCGCUGGGAAGGAGCGCAGAUGACUGCAGGUAGGUCGCCCAGUGAUGUUGGGCUUUCCACCUAUG [Esisusa],132,109,107,136,100
